Assay results reported in the supplement of paper PMC9170038.

System: MS2 coat protein
Test: apparent KD of MS2 coat protein; designed switch direction (-1 OFF switch, 1 ON switch): -1; higher = weaker reporter binding
Outline: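 Designed RNA switches with common flanks were transcribed on Illumina chips by stalled E. coli RNA polymerase and titrated with SNAP-549-labelled MS2 coat protein, from 0.7 or 1.5 nM doubling to 3 µM, in Tris-HCl pH 7.5 buffer with KCl, MgCl2, BSA, DTT, tRNA and Tween-20. Steps lasted 0.8–1.5 h (lowest) to 10–20 min (highest). Titrations ran without input, with 200 uM small-molecule ligand, or with an oligonucleotide input. Normalised cluster fluorescence was curve-fitted, and apparent KD is the per-design median over clusters.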

[1] = input ligand: microRNA oligo, concentration not stated
[2] = Eterna round: R95, input ligand: FMN 200 uM
[3] = Eterna round: R95, input ligand: microRNA oligo, concentration not stated
[4] = Eterna round: R95, input ligand: none

With “UGAAGUUGUGUGAGGAUAUCGGGCCCGAAAGGGCCCGAGAAGGCACAUGAGGAUCACCCAUGUAAGCGGCUUCG [-37.8, -35.7 kcal, A 26%, 0-3] (Eterna round: R97, puzzle: Brourd's mod of Exclusion 4)” as the sequence, how does the “apparent KD of MS2 coat protein” value (input ligand: FMN 200 uM) read?
Its value is 15.8 nM.

What about the “apparent KD of MS2 coat protein” value (input ligand: none) of the same sequence?
Its value is 19.6 nM.

With “UUAAUUAAUUAAGCGCAAGAUCACAUGAGGAUCACCCAUGUAUAGGAUAUCAGCUCGAUUAGAGCUGAGAAGGAUACAUAGCGC [ExNG3/2-A1] (Eterna round: R96, puzzle: Exclusion NG 3)” as the sequence, how does the “apparent KD of MS2 coat protein” value [1] read?
Its value is 185 nM.

Which “apparent KD of MS2 coat protein” value (input ligand: FMN 200 uM) does the source give for “UUUCCUUGUGUGAGGAUAUACUUGUUUGUGUUUUUGUAGAAGGCACAUGAGGAUCACCCAUGUACUCUUUCCUG [JR_BME4_Sub023] (Eterna round: R96, puzzle: Brourd's mod of Exclusion 4)” here?
The value was 68.6 nM.

And the “apparent KD of MS2 coat protein” value [1]?
Its value is 34.7 nM.

And the “apparent KD of MS2 coat protein” value (input ligand: none)?
The value was 37.7 nM.

What does the source list for “AGUACUAACACGUAUGUGUUAGUACAAUAAGCUUGUGAAACAUGAGGAUCACCCAUGUCCUCAUAAGCUCGUCUUAU [salish99_TOv2_r3_066] (puzzle: Sensor v3, turn-off variant 2)”?
apparent KD of MS2 coat protein [2]: 18.1 nM; apparent KD of MS2 coat protein [3]: 764 nM; apparent KD of MS2 coat protein [4]: 15 nM

For “GGAUCACAUGUCAGGAUAUCCGGGCAGAGUGGCCAGGAGAAGGGACAUGAGGAUCACCCAUGUUGCUUAAAAUU [Bierorerqu] (puzzle: Brourd's mod of Exclusion 4)”, which “apparent KD of MS2 coat protein” value [2] is on record?
Its value is 34.8 nM.

And the “apparent KD of MS2 coat protein” value [3]?
The value was 69.9 nM.

And the “apparent KD of MS2 coat protein” value [4]?
The value was 157 nM.

Which results are given for “AACCGGGCGGCAGGAUAUCCAGAUUAAUUGUGGUAGUCCUGACAUGAGGAUCACCCAUGUGAAAAGGAGAAGGGCCGGAAAUUA [Onona] (Eterna round: R96, puzzle: Exclusion NG 2)”?
apparent KD of MS2 coat protein (input ligand: FMN 200 uM): 437 nM; apparent KD of MS2 coat protein [1]: 64.1 nM; apparent KD of MS2 coat protein (input ligand: none): 122 nM

For “AAGAGCAGACGGAGAUCCAACAUGAGGAUCACCCAUGUCUCGCAAGCUUUUUGCUUGUCUUAUCCUCCUCUGUUCAC [Esquitian 4] (Eterna round: R97, puzzle: Sensor, turn-off variant 1)”, which “apparent KD of MS2 coat protein” value (input ligand: FMN 200 uM) is on record?
Its value is 14.8 nM.

What about the “apparent KD of MS2 coat protein” value (input ligand: none) of the same sequence?
The value was 14.6 nM.

Which results are given for “AAAUCGCAAGGAUAUCGUCAGUCUGACAUGAGGAUCACCCAUGUUAUCUUGGUAUCAGAGCGAGAAGGUGCAAAGU [Erbied] (Eterna round: R96, puzzle: Exclusion 5)”?
apparent KD of MS2 coat protein (input ligand: FMN 200 uM): 10.8 nM; apparent KD of MS2 coat protein [1]: 9.45 nM; apparent KD of MS2 coat protein (input ligand: none): 14.6 nM

With “UAAUAAUAGUCAGGAUAUAGUUAUUAUAAUAUACUAGAAGGGACACAUGAGGAUCACCCAUGUUUUAUAAUUUGUAAUUUAAAU [5th something] (Eterna round: R96, puzzle: Exclusion NG 1)” as the sequence, how does the “apparent KD of MS2 coat protein” value [1] read?
The value was 16.2 nM.

What does the source list for “GGCCCUAGGGUCAGACGCACAAGCUUUUUGCUCGUUUUAACAUGAGGAUCACCCAUGUCUAGUGGAUCUGAUCGGGU [Mausinonra] (Eterna round: R96, puzzle: Sensor v3, turn-off variant 2)”?
apparent KD of MS2 coat protein (input ligand: FMN 200 uM): 19.6 nM; apparent KD of MS2 coat protein [1]: 96.8 nM; apparent KD of MS2 coat protein (input ligand: none): 25.8 nM

“AUUAAGCAGCAGGAUAUAAUUAUCUGAAGGUGGUUAGAAGGGCUGACAUGAGGAUCACCCAUGUGCUCUUCGUG [Diries] (puzzle: Exclusion 6)” was tested. Which “apparent KD of MS2 coat protein” value [3] did it give?
Its value is 14.7 nM.

“GAGCUAUGAGGAUAUGCAUAUAUACGGUUUCGUGUGGUACUACAUGAGGAUCACCCAUGUAGAAGGCGUGGCAG [Mat - Exclusion 2 - Mod of JL - D78] (puzzle: Exclusion 2)” was tested. Which “apparent KD of MS2 coat protein” value [3] did it give?
Its value is 16.7 nM.

Which results are given for “GAUCAUGCAGGAUAUACAGUAACCAUGAAAACAUGGUUGUAACAUGAGGAUCACCCAUGUAGAAGGGCAUGAUC [Omei Ex2 A4] (Eterna round: R97, puzzle: Exclusion 2)”?
apparent KD of MS2 coat protein (input ligand: FMN 200 uM): 23.5 nM; apparent KD of MS2 coat protein (input ligand: none): 15.4 nM

“UCAUGUUUAGAGGAUAUGAUUACUUUCGAGUAAUCAGAAGGCUAGACAUGAGGAUCACCCAUGUCAUAACAUGA [Exclusion 6 - B - 15:b] (puzzle: Exclusion 6)” was tested. Which “apparent KD of MS2 coat protein” value [2] did it give?
The value was 68.7 nM.

And the “apparent KD of MS2 coat protein” value [3]?
Its value is 71.8 nM.

What about the “apparent KD of MS2 coat protein” value [4] of the same sequence?
The value was 214 nM.

How did the “apparent KD of MS2 coat protein” value (input ligand: FMN 200 uM) turn out when “UGCAGACGAGGAUAUAAAUUUGAUAACAUGAGGAUCACCCAUGUGAUCGAUAGAUCAAAUUUAGAAGGUGUCUGCA [E5/7-B2] (Eterna round: R97, puzzle: Exclusion 5)” was run?
The value was 443 nM.

And the “apparent KD of MS2 coat protein” value (input ligand: none)?
Its value is 576 nM.

Which results are given for “UCUGUUUUGCGAGGAUAUCGACCAUUCCUCUUAACAUGAGGAUCACCCAUGUGCUAAACCUACAACGAGAAGGCGCUCAUACUC [JR_ExcNG2_Sub067] (Eterna round: R96, puzzle: Exclusion NG 2)”?
apparent KD of MS2 coat protein (input ligand: FMN 200 uM): 60.8 nM; apparent KD of MS2 coat protein [1]: 50 nM; apparent KD of MS2 coat protein (input ligand: none): 51.9 nM

For “GCAUCGUGAGGAUAUACAUGAGGAUCACCCAUGUGGCGGAUCUACCAGCCAGCAAAAUGUAGAAGGCAUUGCUU [Eternabot (L2) Solution 19] (Eterna round: R97, puzzle: Exclusion 3)”, which “apparent KD of MS2 coat protein” value (input ligand: FMN 200 uM) is on record?
The value was 123 nM.

And the “apparent KD of MS2 coat protein” value (input ligand: none)?
Its value is 142 nM.

“AGACAACAUGAGGAUCACCCAUGUAAGGAUAUACAAGAUUUGAGAAACGGACUGCCUUGUAGAAGGUACAGGUG [Eternabot (L2) Solution 9] (Eterna round: R97, puzzle: Exclusion 1)” was tested. Which “apparent KD of MS2 coat protein” value (input ligand: FMN 200 uM) did it give?
The value was 51 nM.

And the “apparent KD of MS2 coat protein” value (input ligand: none)?
Its value is 36.7 nM.

Which “apparent KD of MS2 coat protein” value [2] does the source give for “AUAGAGUCAGGAUAUACAAGAUGAAAGAUAGAUAGAAGAAAGUAGAAGGGACAUGAGGAUCACCCAUGUAAGAA [JR_Exclu4_Sub051] (puzzle: Exclusion 4)” here?
The value was 34.9 nM.

And the “apparent KD of MS2 coat protein” value [3]?
The value was 31.7 nM.

And the “apparent KD of MS2 coat protein” value [4]?
Its value is 36.2 nM.

With “AGCUGUGGCCGAGGAUAUACAUGAGGAUCACCCAUGUUACAUAAUUAAGCCGGAGAACCGGCUCCGUAGAAGGCGGUCUCAGCA [Eli eng2 - 003] (Eterna round: R96, puzzle: Exclusion NG 2)” as the sequence, how does the “apparent KD of MS2 coat protein” value (input ligand: FMN 200 uM) read?
Its value is 12.6 nM.

And the “apparent KD of MS2 coat protein” value [1]?
The value was 9.39 nM.

And the “apparent KD of MS2 coat protein” value (input ligand: none)?
The value was 13.7 nM.

What does the source list for “UGAGUGCUGCGAGGAUAUACAUGAGGAUCACCCAUGUAAUAGUGUGAGGCUUUGCCUCACACAAUGUAGAAGGCGCAGUACUCU [JL ENG2 1.02] (Eterna round: R96, puzzle: Exclusion NG 2)”?
apparent KD of MS2 coat protein (input ligand: FMN 200 uM): 17.1 nM; apparent KD of MS2 coat protein [1]: 8.58 nM; apparent KD of MS2 coat protein (input ligand: none): 12.5 nM

What does the source list for “ACUUGCUAUUUGCUCGUCUUAUCCUUGUUUGUUUACUAUACAUGAGGAUCACCCAUGUUAUAUUUAAGGGUGUGAUA [JR_SV3TOV2_Sub075] (puzzle: Sensor v3, turn-off variant 2)”?
apparent KD of MS2 coat protein [2]: 141 nM; apparent KD of MS2 coat protein [3]: 322 nM; apparent KD of MS2 coat protein [4]: 166 nM

Which results are given for “UAGGGCUGCGGAGGAUAUCCAUAGUGGGCCGGUCGAAGCAUGAGACAUGAGGAUCACCCAUGUCUGGAGAAGGCUGAGCCCUCA [Lequcele] (Eterna round: R96, puzzle: Exclusion NG 2)”?
apparent KD of MS2 coat protein (input ligand: FMN 200 uM): 20.8 nM; apparent KD of MS2 coat protein [1]: 12.1 nM; apparent KD of MS2 coat protein (input ligand: none): 14.1 nM

What does the source list for “AGCUGUGGCCGAGGAUAUCUGUUCCAUAUAACCGACGUAUAGUCGGACAUGAGGAUCACCCAUGUAGAGAAGGCGGUCUCAGCA [Eli eng2 - 000] (Eterna round: R96, puzzle: Exclusion NG 2)”?
apparent KD of MS2 coat protein (input ligand: FMN 200 uM): 39.2 nM; apparent KD of MS2 coat protein [1]: 23.3 nM; apparent KD of MS2 coat protein (input ligand: none): 25.4 nM

“CCGCUGCAAGGAUAUACUUGCGGUGGUGUUCGAGUUCUUCUACUUGAGGAUCACCCAAGUAGAAGGUGCAAAAC [jl-ex2.4.56 ViennaUCT mod] (Eterna round: R97, puzzle: Exclusion 2)” was tested. Which “apparent KD of MS2 coat protein” value (input ligand: FMN 200 uM) did it give?
Its value is 12.6 nM.

And the “apparent KD of MS2 coat protein” value (input ligand: none)?
Its value is 13.5 nM.
